For experiment [1], the target named is HLA-B*08:01. Put plainly: IEDB peptide-MHC binding, purified MHC/competitive/fluorescence; filed as Kd, often an IC50 or EC50 that approximates it; ≥ and ≤ were set here for values at or beyond the usual limits of such assays. Particulars: source organism: Salmonella enterica subsp. enterica serovar Typhi.
In experiment [2] the target is HLA-A*02:01. The experiment is described as above.
The target of experiment [3] is HLA-B*39:01. Described as above.
The target in experiment [4] is HLA-A*02:16. Described as above.
The target in experiment [5] is HLA-B*08:01. Nature of the experiment: IEDB peptide-MHC binding, purified MHC/direct/fluorescence; filed as Kd, often an IC50 or EC50 that approximates it; ≥ and ≤ were set here for values at or beyond the usual limits of such assays.
Experiment [6] concerns the target HLA-B*44:02. The description is as above.
Experiment [7] addresses HLA-B*27:05. The description is as above.
Experiment [8] deals with HLA-A*26:01. The experiment is described as above.
Experiment [9] deals with HLA-B*58:01. The experiment is described as above.
In experiment [10] the target is HLA-A*69:01. Described as above.
Experiment [11] concerns the target HLA-A*02:01. The experiment is described as above.
Experiment [12] addresses HLA-B*07:02. The experiment is described as above.
The target in experiment [13] is HLA-A*03:01. Described as above.
The target of experiment [14] is HLA-A*01:01. The description is as above.
In experiment [15] the target is HLA-A*11:01. Described as above.
Experiment [16] concerns the target HLA-A*24:03. Described as above.
For experiment [17], the target named is HLA-A*30:01. The description is as above.
Experiment [18] concerns the target HLA-B*15:01. The description is as above.
The target of experiment [19] is HLA-B*40:01. The experiment is described as above.
Experiment [20] concerns the target HLA-A*31:01. The description is as above. The following applies: source organism: Pseudomonas aeruginosa.
For experiment [21], the target named is HLA-B*18:01. Put plainly: IEDB peptide-MHC binding, purified MHC/competitive/fluorescence; filed as Kd, often an IC50 or EC50 that approximates it; ≥ and ≤ were set here for values at or beyond the usual limits of such assays. Particulars: source organism: Vibrio antiquarius.
Experiment [22] addresses HLA-A*26:01. Described as above. Particulars: source organism: Vibrio antiquarius.
For experiment [23], the target named is HLA-A*69:01. The experiment is described as above. The following applies: source organism: Vibrio antiquarius.
The target of experiment [24] is HLA-B*27:03. The experiment is described as above. Particulars: source organism: Vibrio antiquarius.
Experiment [25] has as its target HLA-A*03:01. Described as above. The following applies: source organism: Vibrio antiquarius.
The target in experiment [26] is HLA-B*46:01. The experiment is described as above. The following applies: source organism: Vibrio antiquarius.
Experiment [27] has as its target HLA-B*57:01. The description is as above. The following applies: source organism: Vibrio antiquarius.
Experiment [28] concerns the target HLA-A*02:12. The description is as above. The following applies: source organism: Vibrio antiquarius.
Experiment [29] concerns the target HLA-A*02:19. The experiment is described as above. The following applies: source organism: Vibrio antiquarius.
Experiment [30] concerns the target HLA-A*24:03. The description is as above. Particulars: source organism: Vibrio antiquarius.
The target of experiment [31] is HLA-B*15:01. The description is as above. The following applies: source organism: Vibrio antiquarius.
The target of experiment [32] is HLA-A*02:03. Described as above. Particulars: source organism: Vibrio antiquarius.
Experiment [33] has as its target HLA-A*68:02. Described as above. Particulars: source organism: Vibrio antiquarius.
Experiment [34] concerns the target HLA-B*51:01. The experiment is described as above. The following applies: source organism: Vibrio antiquarius.
The target in experiment [35] is HLA-B*08:02. Nature of the experiment: IEDB peptide-MHC binding, purified MHC/direct/fluorescence; filed as Kd, often an IC50 or EC50 that approximates it; ≥ and ≤ were set here for values at or beyond the usual limits of such assays. Particulars: source organism: Escherichia coli O157:H7 str. EC869.
For experiment [36], the target named is HLA-B*46:01. Described as above. Particulars: source organism: Yellow fever virus.
Experiment [37] addresses HLA-B*57:01. The description is as above. Particulars: source organism: Yellow fever virus.
Experiment [38] deals with HLA-B*15:09. The experiment is described as above. The following applies: source organism: Yellow fever virus.
Setting [39] is: source organism: Salmonella enterica subsp. enterica serovar Typhi.
Where [40] appears, read: source organism: Toxoplasma gondii ME49.
Setting [41] is: source organism: Yersinia enterocolitica.
Setting [42] is: source organism: Pseudomonas aeruginosa.
[43] abbreviates: source organism: Vibrio antiquarius.
[44] abbreviates: source organism: Pseudomonas aeruginosa UCBPP-PA14.
[45] abbreviates: source organism: Yellow fever virus.

The term Kd denotes the constant that tells how readily two partners part at equilibrium.

As to WLMKYPYQL, the results for the Kd in experiment [1], in experiment [2] (setting [39]) and in experiment [3] (setting [39]) were 0.0886 µM, 0.0002 µM and ≤ 0.001 µM, respectively.

On to FGGGPWWEV, for which the Kd in [2] (setting [40]) is 0.0122 µM; in experiment [4] (setting [40]) it was 0.0084 µM.

Take GYGRVNAGK: the Kd in experiment [5] (setting [41]), in experiment [6] (setting [41]), in [7] (setting [41]), in experiment [8] (setting [41]), in experiment [9] (setting [41]) and in experiment [10] (setting [41]) was ≥ 20 µM each time. In addition, the Kd in [11] (setting [41]) is ≥ 20 µM; in [12] (setting [41]), ≥ 20 µM; in experiment [13] (setting [41]), ≥ 20 µM; in [14] (setting [41]), ≥ 20 µM; in experiment [15] (setting [41]), 6.54 µM; in [16] (setting [41]) it was 10.3 µM. Further, the values for the dissociation constant Kd in experiment [17] (setting [41]), in experiment [18] (setting [41]) and in experiment [19] (setting [41]) were 9.1 µM, ≥ 20 µM and ≥ 20 µM, respectively.

With DLPPAIAAE, the Kd was ≥ 20 µM in experiment [5] (setting [42]); ≥ 20 µM in experiment [7] (setting [42]); 1.95 µM in experiment [8] (setting [42]); ≥ 20 µM in experiment [9] (setting [42]); ≥ 20 µM in experiment [10] (setting [42]); ≥ 20 µM in experiment [11] (setting [42]). In addition, the Kd in experiment [12] (setting [42]) was ≥ 20 µM; in experiment [13] (setting [42]), ≥ 20 µM; in experiment [14] (setting [42]), ≥ 20 µM; in experiment [15] (setting [42]), ≥ 20 µM; in experiment [20] it was ≥ 20 µM; in experiment [17] (setting [42]), 12.6 µM. Besides, the Kd in experiment [18] (setting [42]) was ≥ 10 µM; in experiment [19] (setting [42]) it was ≥ 20 µM.

In the case of FDLFGITLY, the dissociation constant (Kd) is 0.279 µM in experiment [21]; ≥ 20 µM in experiment [22]; ≥ 20 µM in experiment [23]; ≥ 20 µM in [24]; ≥ 20 µM in experiment [2] (setting [43]); ≥ 20 µM in experiment [4] (setting [43]). Also, the Kd in experiment [25], in experiment [26], in experiment [3] (setting [43]), in [27], in [28] and in experiment [29] was ≥ 20 µM throughout. Also, the dissociation constant (Kd) in experiment [30], in experiment [31], in experiment [32], in experiment [33] and in [34] was ≥ 20 µM in each case.

Consider RTGTRLLGR, for which the Kd in experiment [5] (setting [44]), in [7] (setting [44]), in experiment [8] (setting [44]), in [9] (setting [44]), in experiment [10] (setting [44]) and in [11] (setting [44]) was ≥ 20 µM each time. For the same sequence, the dissociation constant Kd in experiment [12] (setting [44]) was ≥ 20 µM; in [13] (setting [42]) it was 0.252 µM; in experiment [14] (setting [44]), ≥ 20 µM; in experiment [15] (setting [42]), 0.197 µM; in experiment [20], 0.052 µM; in experiment [16] (setting [44]) it was ≥ 20 µM. In addition, the dissociation constant Kd was 12 µM in experiment [17] (setting [42]), ≥ 20 µM in experiment [18] (setting [44]) and ≥ 20 µM in experiment [19] (setting [44]).

Regarding RMKMRRPHL, in experiment [35], the Kd amounted to 2.36 µM.

Consider IQYVIRAQL, for which the Kd in experiment [6] (setting [45]), in experiment [7] (setting [45]), in experiment [9] (setting [45]), in experiment [13] (setting [45]), in [14] (setting [45]) and in experiment [36] was ≥ 20 µM each time. Also, the Kd in experiment [37] and in experiment [38] was ≥ 20 µM in each case.

Source of the values: the Immune Epitope Database (IEDB).
